Test results published in US20120195910A1 (published 2012).
Positions count from the first letter of the chain named.

Assays:
[1] = target: Human PCSK9 (Genbank EF692496) containing a histidine (His)8 C-terminal tag (UniProt Q8NBP7 31-692); assay: BIAcore SPR; FIG. 3A
biotinylated human PCSK9 = biotinylated human PCSK9 (UniProt Q8NBP7 31-692, biotinylated (sites not given)); assay: competition binding ELISA (PCSK9-LDLR)

B1: YW508.20.84 (antibody, V domains shown)
VH: EVQLVESGGGLVQPGGSLRLSCAASGFTFTGYAIHWVRQAPGKGLEWVARISPANGNTNYADSVKGRFTISADTSKNTAYLQMNSLRAEDTAVYYCARWIGSRELYIMDYWGQGTLVTVSS
VL: DIQMTQSPSSLSASVGDRVTITCRASQDVSTAVAWYQQKPGKAPKLLIYSASFLYSGVPSRFSGSGSGTDFTLTISSLQPEDFATYYCQQSYPAPSTFGQGTKVEIKR
Kd [1]: 481 pM
IC50 (biotinylated human PCSK9): 1390 pM

B2: YW508.20.28 (antibody, V domains shown)
VH: B1 VH with G31R, Y32H, A33T
VL: B1 VL with P93R, A94I, P95Q, S96P
Kd [1]: 349 pM
IC50 (biotinylated human PCSK9): 1050 pM

B3: YW508.20.06 (antibody, V domains shown)
VH: B1 VH
VL: B1 VL with A94S, S96A
Kd [1]: 628 pM
IC50 (biotinylated human PCSK9): 1000 pM

B4: YW508.20 (antibody, V domains shown)
VH: B1 VH with A49G
VL: B1 VL with T31S, F53S, G66R, P93T, A94T, S96P
IC50 (biotinylated human PCSK9): 15200 pM

B5: YW508.20.33 (antibody, V domains shown)
VH: B1 VH with T30S, G31S, Y32T
VL: B1 VL with P95L, S96H
Kd [1]: 408 pM
IC50 (biotinylated human PCSK9): 1310 pM

B6: YW508.20.04 (antibody, V domains shown)
VH: B1 VH with A49G
VL: B1 VL with S96A
Kd [1]: 757 pM
IC50 (biotinylated human PCSK9): 920 pM
